Laboratory results reported in the Immune Epitope Database (IEDB).
Each block holds one sequence with its values, some of them ahead of it.

Legend:
HLA-A*31:01 = assay: IEDB peptide-MHC binding, purified MHC/competitive/fluorescence; filed as Kd, often an IC50 or EC50 that approximates it; ≥ and ≤ were set here for values at or beyond the usual limits of such assays
HLA-A*03:01 [1] = assay: IEDB peptide-MHC binding, purified MHC/direct/fluorescence; filed as Kd, often an IC50 or EC50 that approximates it; ≥ and ≤ were set here for values at or beyond the usual limits of such assays
HLA-A*11:01 [2] = assay: as above
HLA-B*57:01 [3] = assay: IEDB peptide-MHC binding, purified MHC/competitive/fluorescence; filed as Kd, often an IC50 or EC50 that approximates it; ≥ and ≤ were set here for values at or beyond the usual limits of such assays; conditions: source organism: Zaire ebolavirus
HLA-B*15:17 = assay: as above; conditions: source organism: Zaire ebolavirus
HLA-B*51:01 = assay: as above; conditions: source organism: Zaire ebolavirus
HLA-B*18:01 = assay: as above; conditions: source organism: Zaire ebolavirus
HLA-A*02:01 = assay: as above; conditions: source organism: Zaire ebolavirus
HLA-B*15:42 = assay: as above; conditions: source organism: Zaire ebolavirus
HLA-B*83:01 = assay: as above; conditions: source organism: Zaire ebolavirus
HLA-B*15:01 = assay: as above
HLA-B*39:01 = assay: as above
HLA-B*46:01 = assay: as above
HLA-B*45:06 = assay: as above; conditions: source organism: Zaire ebolavirus
HLA-B*27:03 = assay: as above; conditions: source organism: Zaire ebolavirus
HLA-A*02:03 = assay: IEDB peptide-MHC binding, purified MHC/direct/fluorescence; filed as Kd, often an IC50 or EC50 that approximates it; ≥ and ≤ were set here for values at or beyond the usual limits of such assays; conditions: source organism: Zaire ebolavirus
HLA-A*02:19 = assay: as above; conditions: source organism: Zaire ebolavirus
HLA-A*02:12 = assay: as above; conditions: source organism: Zaire ebolavirus
HLA-A*02:16 = assay: as above; conditions: source organism: Zaire ebolavirus
HLA-A*24:03 = assay: as above; conditions: source organism: Zaire ebolavirus
HLA-B*08:01 = assay: IEDB peptide-MHC binding, purified MHC/competitive/fluorescence; filed as Kd, often an IC50 or EC50 that approximates it; ≥ and ≤ were set here for values at or beyond the usual limits of such assays
HLA-A*03:01 [4] = assay: as above; conditions: source organism: Escherichia coli 536
HLA-B*57:01 [5] = assay: IEDB peptide-MHC binding, purified MHC/competitive/radioactivity; filed as Kd, often an IC50 or EC50 that approximates it; ≥ and ≤ were set here for values at or beyond the usual limits of such assays; conditions: source organism: Dengue virus 2 Jamaica/1409/1983
HLA-B*58:01 = assay: as above; conditions: source organism: Dengue virus 2 Jamaica/1409/1983
HLA-B*53:01 = assay: as above; conditions: source organism: Dengue virus 2 Jamaica/1409/1983
HLA-A*01:01 = assay: as above; conditions: source organism: Dengue virus 2 Jamaica/1409/1983
HLA-C*03:03 = assay: IEDB peptide-MHC binding, purified MHC/direct/fluorescence; filed as Kd, often an IC50 or EC50 that approximates it; ≥ and ≤ were set here for values at or beyond the usual limits of such assays
HLA-A*11:01 [6] = assay: IEDB peptide-MHC binding, purified MHC/competitive/fluorescence; filed as Kd, often an IC50 or EC50 that approximates it; ≥ and ≤ were set here for values at or beyond the usual limits of such assays; conditions: source organism: Influenza A virus H3N2
HLA-C*07:02 = assay: IEDB peptide-MHC binding, purified MHC/direct/fluorescence; filed as Kd, often an IC50 or EC50 that approximates it; ≥ and ≤ were set here for values at or beyond the usual limits of such assays; conditions: source organism: Human herpesvirus 4 strain B95-8
[7] = source organism: Zaire ebolavirus
[8] = source organism: Escherichia coli
[9] = source organism: Escherichia coli 536
[10] = source organism: Influenza A virus (A/Belfast/53582/2004(H3N?))
[11] = source organism: Mycobacterium tuberculosis variant bovis BCG str. Pasteur 1173P2

Sequence: VVYKTGAIR
Kd (HLA-A*31:01; source organism: Mycobacterium tuberculosis C): 59.4 nM
Kd (HLA-A*03:01 [1]; source organism: Mycobacterium leprae): 751 nM

Sequence: KTALTGAMR
Kd (HLA-A*31:01; source organism: Yellow fever virus 1899/81): 16 nM
Kd (HLA-A*11:01 [2]; source organism: Yellow fever virus): 15.1 nM

Sequence: FTFDLTALK
Kd (HLA-B*57:01 [3]): ≥ 20000 nM
Kd (HLA-B*15:17): ≥ 20000 nM
Kd (HLA-B*51:01): ≥ 20000 nM
Kd (HLA-B*18:01): ≥ 20000 nM
Kd (HLA-A*02:01): ≥ 20000 nM
Kd (HLA-B*15:42): ≥ 5000 nM
Kd (HLA-B*83:01): ≥ 5000 nM
Kd (HLA-B*15:01; [7]): ≥ 20000 nM
Kd (HLA-B*39:01; [7]): ≥ 20000 nM
Kd (HLA-B*46:01; [7]): ≥ 20000 nM
Kd (HLA-A*31:01; [7]): ≥ 20000 nM
Kd (HLA-B*45:06): ≥ 5000 nM
Kd (HLA-B*27:03): ≥ 20000 nM
Kd (HLA-A*03:01 [1]; source organism: Ebola virus - Gabon (1994-1997)): 229 nM
Kd (HLA-A*02:03): ≥ 20000 nM
Kd (HLA-A*02:19): ≥ 20000 nM
Kd (HLA-A*02:12): ≥ 20000 nM
Kd (HLA-A*02:16): ≥ 20000 nM
Kd (HLA-A*24:03): ≥ 20000 nM

Kd (HLA-B*15:01; [8]): 354 nM
Kd (HLA-B*39:01; [8]): 2.5 nM
Kd (HLA-B*08:01; [8]): 1900 nM
Sequence: HLAGYSGVL

Kd (HLA-B*08:01; [9]): ≥ 20000 nM
Sequence: LIAVPHTKL

Sequence: WILDRLFFK
Kd (HLA-A*31:01; source organism: Influenza A virus (A/Memphis/1/1978(H1N1))): 244 nM
Kd (HLA-A*03:01 [1]; [10]): 52.7 nM
Kd (HLA-A*11:01 [2]; [10]): 2.1 nM

Kd (HLA-A*03:01 [4]): 31 nM
Kd (HLA-A*31:01; [9]): 34.4 nM
Sequence: KIPATVIAR

Sequence: LTSSQQKADW
Kd (HLA-B*57:01 [5]): 100 nM
Kd (HLA-B*58:01): 59.2 nM
Kd (HLA-B*53:01): ≥ 21800 nM
Kd (HLA-A*01:01): 11000 nM

Sequence: SAFGGGNAF
Kd (HLA-B*46:01; [11]): 36.8 nM
Kd (HLA-C*03:03; [11]): ≤ 1 nM

Sequence: SSFSFGGFTFK
Kd (HLA-A*11:01 [6]): 0.5 nM

Sequence: FYNIPPMPL
Kd (HLA-C*07:02): 43 nM
Kd (HLA-C*03:03; source organism: Human herpesvirus 4 strain B95-8): 51 nM
